Assay results reported in patent US20230372399A1.
Where two headings read alike, the source gives them in different places.

How the values were obtained:
Experiment in all cases: cell-based or functional assay
[1] = target: TGFβ1 (R&D systems) (UniProt P01137)
[2] = target: TGFβ1 (R&D systems) (UniProt P01137); remark: listed apart in the source
[3] = target: IL-2Rαβγ (on CTLL-2 cells)
[4] = target: IL-2Rβ and common γ chain (on 32Dβ cells)
[5] = target: IL-2Rβ and common γ chain (on 32Dβ cells); remark: listed apart in the source
[6] = target: IL-2Rβ and common γ chain (on 32Dβ cells); remark: listed apart in the source
[7] = target: IL-21R (on B9 cells)

TGFR-Fc (R&D Systems), sequence (P37173 24-159): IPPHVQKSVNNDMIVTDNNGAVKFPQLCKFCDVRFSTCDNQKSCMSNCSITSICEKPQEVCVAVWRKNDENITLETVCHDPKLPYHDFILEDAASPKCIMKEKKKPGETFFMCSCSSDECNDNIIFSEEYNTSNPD
TGFβ1 (R&D systems), sequence (P01137 279-390 limits assumed): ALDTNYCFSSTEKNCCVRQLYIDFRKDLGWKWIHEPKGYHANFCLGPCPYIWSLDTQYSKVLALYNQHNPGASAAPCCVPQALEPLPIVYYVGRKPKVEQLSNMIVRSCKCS

Question: What does the source list for “TGFR-Fc (R&D Systems) (from UniProt P37173 24-159) (Fc fusion)”?
Answer: IC50, inhibition of TGFβ1 activity, HEK-Blue TGFβ reporter cells [1]: 461 pM; IC50, inhibition of TGFβ1 activity, HEK-Blue TGFβ reporter cells [2]: 559 pM

Question: For “recombinant IL-2 (from UniProt P60568 21-153) (ligand)”, which EC50, CTLL-2 cell proliferation (WST-1) [3] is on record?
Answer: 548 pM

Question: For “recombinant IL-15 (from UniProt P40933 49-162) (ligand)”, which EC50, 32Dβ cell proliferation (WST-1) [4] is on record?
Answer: 16.6 pM

Question: And the EC50, CTLL2 cell proliferation (PrestoBlue) [3]?
Answer: 4.95 pM

Question: What about the EC50, CTLL2 cell proliferation (WST-1) [3] of the same substance?
Answer: 6.22 pM

Question: What about the EC50, 32Dβ cell proliferation (WST-1) [5] of the same substance?
Answer: 10.6 pM

Question: What about the EC50, 32Dβ cell proliferation (WST-1) [6] of the same substance?
Answer: 1.6 pM

Question: How did the EC50, B9 cell proliferation (WST-1) [7] turn out when “recombinant IL-21 (from UniProt Q9HBE4 32-162) (ligand)” was run?
Answer: 72600 pM
